Data on 40 sequences can be found in the nanobody polyreactivity screen of Harvey et al. (2022).

The data set is described as follows: yeast display, Sf9 membrane polyspecificity reagent, FACS + sequencing; frameworks hold sequencing errors. The method, boiled down: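 In a synthetic yeast display library (Saccharomyces cerevisiae BJ5465), nanobody expression was induced with galactose for 36–48 hours. FACS gates were set low and high (top ~1%) using anti-HA fluorescence for expression and streptavidin fluorescence for binding of the Sf9 membrane reagent. Each polyreactivity label is drawn from the gate of origin.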
As to “KVQLVESGGGLVQAGGSLRLSCAASGSTFSLYTLGGYRQAPGTERELVAAITNGGSTKYADSVKGRFTISRDNAKNTDYFQMNSLKPEDTAVYYCAALYSHYYWIEYDYWGQGTQVTVST”, the “polyreactivity (PSR sort gate)” value is reported as “low polyreactivity”. In the case of “KVQLVESGGGLVQAGGSLRLSCAASGSTFYQYAMGWYRQAPGKERELVAVITGSGGSTYYADSVKGRFTISRDNAKNTVYLQMNSLKPEDTAVYYCAAGARYFKYRTTSLGGNYWGQGTQVTVSS”, the “polyreactivity (PSR sort gate)” value is reported as “high polyreactivity”. The entry for “KVQLVESGGGLVQAGGSLRLSCDASGSTFQYYTMGWYRQAPGKESELVAAISADGGNTYYADSVKGRFTISRDNAKNTVYLQMNSLKPEDTAVYYCNADVSLTLRTLVPGRAYDYWGQGTQVTVSS” is “low polyreactivity”; for “KVQLVESGGGLVQAGGTLRLSCAASGSTFTPYAMVWYRQAPGKERELVAAIWIGGNTYYADSVKGRFTISRDNAKNTVYLQMNSLKPEDTAVYYCATENVDPDHYYDWGYDYWGQGTQVTVSS” it is “low polyreactivity”. The entry for “KVQLVESGGVLVQEGGRLRLSCAASGRTFQLNAMGWYRQAPGKEMELVAAISTRGGSTYYADSVKGRFTISRDNAKNSVYLQMNSLKPEDTAGYYCAKDPSFTRGYKEGGGYDYWGQGTQVTVSS” is “high polyreactivity”; for “KVQLVESRGGLVQAGGSLRLSCAASGRTFIRYAMGWYRQAHGKEREFVAAITWSGGSTYYADSVKGRFTISRDNAKNTVYLQMNSLKPEDTAVYYCAKYPAARAVDYWGQGSQVTVSS” it is “high polyreactivity”; for “LLQLVESVGGLVQAGGTLRLSCAASRSTFHANTLGGYRKAPGKERELVAAISIRGANTYYADSVKGRLTISSDNAKNTVYLQMNSLKREDTAVYYCATRVRKYSLRLDYWGQGTQVTVSS” it is “high polyreactivity”. The entry for “LVQLQESGGGLVQACGSLRLSCAASGDIFDADIMGWYRQAPGKERELVASITDGGSTNYADSVKGRFTISRDNAKNTVYLPMNSLKPEDTAVYYCAKPATYYELDYWGQGTQVTVSS” is “low polyreactivity”; for “LVQLQESGGGLVQAGGSLRLSCAASGSIYKVVDMGLYRQAPAKEREFVATIGEGGNTYYADSVKGRFTISRDNAKNTVYLQMNSLKPEDTAVYYCNDDIGVYAYESDYWGQGTQVTVSS” it is “low polyreactivity”. Take “LVQLQESGGGLVQAGGSLRLSCAASGTISPGGYMGWYRQAPGKERELVASMNVGGSTNYADSVKGRFTISRDNAIITVYLQMNSLKPEDNAVYYCAVWGRNRLQLSYWGQGTQVTVSS”: the “polyreactivity (PSR sort gate)” value is “low polyreactivity”.

For the sequence “LVQLVESGGGLVQAGGSLRLICAASGITISYNAMGWYRQAPGKERELVAAITGSDGITYYADSVKGRFTISRDNAKNTVYLEMNSLKPEDTAVYYCAAEWWDYWYEYDYWGQGTQVTVSS”, the “polyreactivity (PSR sort gate)” value is “high polyreactivity”. Take “LVQLVESGGGLVQAGGSLRLSCAASGFTFGRNAMGWYRQSPGKEREFVADISGSVGSTYYADSVKGRFTISRDNAKNSVYLQMNRLIPEDTAVYYCAADTLYPRWEFDYWGQGTQVTVSS”: the “polyreactivity (PSR sort gate)” value is recorded as “high polyreactivity”. As to “LVQLVESGGGLVQAVGSLRLSCAASGFTIYGNAMGWYRRAPGKERELVAAITWRGGSTYYADSEKGRFTISRDNAKNTVYLQMNSLKPEDTAVYYCNALKGRPVRSYLASPSYRYDYWGQGTQVTVSS”, the “polyreactivity (PSR sort gate)” value is “high polyreactivity”.

For the sequence “PVQIVESGGGLVQAGGSLRLSCAASGFTFYSNAMGWYRQAPGKEWEMVAAISFSGTRTYYADSVKGRFTISRDNEKNTVYLQMNSLKPEDTAVYYCNAVAYNYPRTYDYWGQGTQVTVSS”, the “polyreactivity (PSR sort gate)” value is “high polyreactivity”. As to “PVQLVDSGGGLVQAGGSLRLSCAASGRIFYGYALGWYRQAPGKERDLDAAIDWSGGSTYADSVTGRFTISRDNAKNTVYLPMHSLKPEDTAVYYCATDWVTSQQPYYWIYEYWGQGTQVTVSS”, the “polyreactivity (PSR sort gate)” value is listed as “low polyreactivity”.

Turning to “PVQLVDSGGGLVQAGGSLRLSCAASGSTFQRNVMGWYRQAPGKERELVAAITWRGTSTYYADSVKGRFTISRDNAKNTVYLQMNSLKPEDTAVYYCAAERTRSGYYYDYWGQGTQVTVSS”, the “polyreactivity (PSR sort gate)” value is on record as “high polyreactivity”. “PVQLVESGGGFVQAGGSLRLSCAASGFTFYVNAMGWYRQAPGKERELVAAISGSGGSTYYADSVKGRFTISRDNAKNTVYLQMNSLKPEDTAGYYCAADAYNPPYWDDPYDYWGQGTQVTVSS”: the “polyreactivity (PSR sort gate)” value was “high polyreactivity”. The entry for “PVQLVESGGGLVQAGGSLRLICAASGRIFEINAMGWYRQAPGKERELFAAITRGGRTYYADSVKGRFTSSRDNAMNTVYLQMTSLKPEDTAVYYCAAYGHIRSGFDCVDYWGQGTQVTVSS” is “high polyreactivity”; for “PVQLVESGGGLVQAGGSLRLSCAASGFIFSWYAMGWYRPAPGKDRELVAAISRSGGSTYADSVKGRFTIARDNAKNTVYLQMNSLKPEDTAVYYCAAGSYWSYWDSRYDYWGQGTQVTVSS” it is “low polyreactivity”. The entry for “PVQLVESGGGLVQAGGSLRLSCAASGSIFASYAMGWYREAPGKERELVAAISSSSGSTYYADSVKGRFTISRDNAKNTVYLQMTSLKPEDTAVYYCAAESGRRIKYWRGYYYWGQGTQVTVSS” is “low polyreactivity”; for “PVQLVESGGGLVQAGGSLRLSCAASGSNFEYYTMGWYRQAPGKERELVATISRSADRTYYADSVKGRFTISRDYAKNTVYLQMNILKPEDTAVYDCAKLYPRTTQWIYDYWGQGTQVTVSS” it is “high polyreactivity”; for “PVQLVESGGGVVQAGGSLRLSCAASGSIFDENAKGWNRQAPGKERELVAAISSGGSTNYADSVKGRFTITRDNAKNTVYLQMNSLKPEDTAVYYCNNKSRRQYDYWGQGTQVTVSS” it is “low polyreactivity”. The same measure for “PVQLVESGGVLVQAGGSLRLSCAASGRTFSYYAMGWYRQAPGKERELVADNNCSGTSTDYADSVKGRFTISRDNAKNTVYLQMHSLKPEDTEVYYCPAYLIVYYGDETPYASLHDYWGQGTQVSVSS”: “low polyreactivity”. With “PVQLVESGGVLVQAGGSLRVSCAASGSILLIYSMGWSIQAPGKERELVAGINWSGSRAYYADSVKGRFTISRDNAQNTVYLQMNSLKPEDTAVYYCAARGRRPLYSAYDSWGQGTQVTVSS”, the “polyreactivity (PSR sort gate)” value is “low polyreactivity”. For the sequence “QAELVESGGGLVQAGGSLRLSSAASGIIFDVYAMGWYRQAPGKERELVASIRWRGGSTYYADSVKGRFTISRDNAKNTVFLQMNSLKPEDTAVYYCAADLTRWYGRTYNYWGQGTQVTVSS”, the “polyreactivity (PSR sort gate)” value is given as “high polyreactivity”. Turning to “QAQLVESGGGLVQAGGSLRLSCAASGSIMYYAMGWYRHAPWKERELVATITRGGSTYYADSVKGRFTISRDNAKNTVYLQMNSLKPEDTAVYYCAKQFLPSGVYYEYDSWGQGTQVTVSS”, the “polyreactivity (PSR sort gate)” value is reported as “low polyreactivity”. On to “QCQREESGGGLVQAGGRLRLSCAASGLILIYYAMGWYRQAPGKERELVAAITSSGGSTYYADSVKGRFTISRDNAKNTVYLQMNSLKREDTAVYYCAAYYSGDGYYWGQGTQVTVSS”, for which the “polyreactivity (PSR sort gate)” value was “high polyreactivity”. The entry for “QDALVESCGGLVQAGGSLRLICAASGSTFDTYALGWYRQAPAKEWELVAGISWSGGSTFFADSVKGRFTISRDNAKNTVSLQMNSLKPEDTAVYDCAKQLWVGVKYDYWGQGPQVTVSS” is “low polyreactivity”; for “QDDLVESGGGLVQAGGSLRFRGAASGYTFEKYAMGWKRQAPGKERELFASISWSGGRTRYADSVKGRFTISRDNAKNTDSLQMNSLQPEDTAVDYCAARGAYKSGYNRNEYWGQGTQVTVSS” it is “high polyreactivity”; for “QDELVESGGGLVQAGGSLRLSCAASGRIFPFYAMGWNRQAPGKERDFVAAITYSGGNTNYADSVKGRFTISRDNAKNTVYLQMNSLKPEDTAVYYCAAVLGYGDYYQEDYWGQGTQVTVSS” it is “low polyreactivity”. Turning to “QDHLVESGGCLVQAGGTLRLSCAASGFTIGNYAMAWYRQPPGKERELVAAISWSGGSTYYADSVKGRFTISRDNAKNTVYLQMNSLNPEVTAVYYCNPKRGSLWESDYWGQGSQVTVSS”, the “polyreactivity (PSR sort gate)” value is reported as “high polyreactivity”.

“QDHLVESGGGLVQAGGSLRLSCAASGRIFSYYVMGWYRQAPGKERELVAAITSGCSTNYADSVKGRFTISRDNAKNNVYLQMNSLKPEDTAVYYFNRAYTYINRLYGYWGQGTQVTVSS”: the “polyreactivity (PSR sort gate)” value was “high polyreactivity”.

Turning to “QDKLVESGGGLVQEGGRLRLSCAASGRIFGNYAMGWYRQAPGKERELVAAIDLSGDSTYYADSVKGRFTISRDNAKYTVYLQMKSLKPEDTAVYYCAATDWFSEYYWGQGTQETVSS”, the “polyreactivity (PSR sort gate)” value is on record as “low polyreactivity”. Take “QDLLVESGGGLVQAGGSLRLRCAASGITFAFYTMGWYRQAPGKPSELVTAISYSGGRTYNADSVKGRFTISRDNAKYTVYVQMLSLKPEDTAVYYCNTRYRGSYDYWGQGTQVTVSS”: the “polyreactivity (PSR sort gate)” value is given as “high polyreactivity”. The same measure for “QDLLVESGGGLVQAGGSLRLSCAASGRTFWDYTMGWYRQAPGKDRELVASITRTCRTNYADSVKGRFTISRDNAKNTVYLQMNSLKTEDTAVYYCAAEVGYQGWYPSGYKFDYWGQGTQVTVSS”: “high polyreactivity”; for “QDQHVESGGCLVQAGGSLRLSCAASGRTFVRNTMGWYRQAPGKEREFVAAISRSGGNTHYADSVKGRFTISRDNAKNTVYLQMNSLKPEDTAVYYCATRAGYEVYPNKMNYWGQGTQVTVSS”: “high polyreactivity”; for “QDQHVESGGGIVQAGGSLRLICAASGRTFANNAMGWYRQAPGKERELVAAISWSGGSTYYADSVKGRFTISRDNAKNTVYLQMNSLKPEDTAVYYCAADSPRYGGYGYWGQGTHVTVSS”: “low polyreactivity”. The entry for “QDQHVESGGGLVQAGGSLPLSCADSGSIFPRNAMGWYRQAPGKERELVAAISRIGGSTYYADAVKGRFTISRDNAKNTVYLQMNSLKPEDTAVYYCAAPPSEWQHDYWGQGTQVTVSS” is “low polyreactivity”; for “QDQHVESGGGLVQAGGSLRLICAASGNTFGWYAMGWYRQAPGKEREFVADISWSGGSTYYADSVKGRFTISRDNAKNTVYLQMNSLKQEDTAVYYCNAVWLYYWHADQYFEYDYWGQGTQVTVSS” it is “high polyreactivity”. The same measure for “QDQHVESGGGLVQAGGSLRLICAASGSIIQVYAIGWYRQAPGKEREFVASITRTGGSTKYADSVKGRFTISRDNAKNTVYLQMNSLKPEDTAFFYCNAVPRSWSPYRHWFDYWGQGTQVTVSS”: “low polyreactivity”.
